Values belong to the molecule of their own block, whether it stands above or below them.
Key:
[1] = biological target: human EpCAM expressed on human carcinoma cells (PC3, MCF7) (human) (UniProt P16422); assay: NIR flow cytometry, IRDye 800CW-labeled isotype control mAb on PC3 cells
[2] = biological target: human EpCAM expressed on human carcinoma cells (PC3, MCF7) (human) (UniProt P16422); assay: flow cytometry on MCF7 cells, mAb concentration 32 ng/ml, fluorescently labeled secondary antibody, 10,000 cells
[3] = biological target: human EpCAM expressed on human carcinoma cells (PC3, MCF7) (human) (UniProt P16422); assay: flow cytometry on MCF7 cells, mAb concentration 160 ng/ml, fluorescently labeled secondary antibody, 10,000 cells
[4] = biological target: human EpCAM expressed on human carcinoma cells (PC3, MCF7) (human) (UniProt P16422); assay: flow cytometry on MCF7 cells, mAb concentration 6.4 ng/ml, fluorescently labeled secondary antibody, 10,000 cells
[5] = biological target: recombinant human (rhu) EpCAM/Fc (960-EP, R&D Systems) (human) (UniProt P16422); assay: flow cytometry of E. coli displaying scFv (APEx), EpCAM-Fc then fluorescent secondary antibody
[6] = biological target: T1, recombinant human (rhu) EpCAM/Fc (960-EP, R&D Systems) (human, UniProt P16422 24-265); assay: SPR, ratio of Fab KD values, reference mAb 9601 Fab
T1 construct: Bought fusion protein; not shown: Fc part
T1 sequence (looked up): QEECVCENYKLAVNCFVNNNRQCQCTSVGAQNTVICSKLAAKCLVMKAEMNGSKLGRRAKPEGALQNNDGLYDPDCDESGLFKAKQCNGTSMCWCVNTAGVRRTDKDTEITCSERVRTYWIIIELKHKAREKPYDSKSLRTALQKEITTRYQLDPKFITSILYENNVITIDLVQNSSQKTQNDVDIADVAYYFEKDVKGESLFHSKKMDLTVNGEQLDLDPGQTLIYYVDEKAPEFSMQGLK
Description: (§1) In order to discriminate between monovalent and multivalent interactions on quantitative SPR measurements of KD, the binding affinities of the Fab fragments of mAbs were measured using SPR and a Biacore T100 instrument (GE Healthcare). Two flow cells of a CM5 chip were coated with goat anti-human IgG (Fc-specific) (Jackson ImmunoResearch) to approximately 8000 resonance units (RU) with an NHS/EDC Amine Coupling Kit BR-1000-50 (GE Healthcare). All measurements were made at 25° C. using HBS-EP+(10 mM HEPES, 150 mM NaCl, 3 mM EDTA, 0.05% v/v Tween 20, pH 7.4) as running buffer. EpCAM/Fc ligand (R&D Systems) was diluted in HBS-EP+ to 0.5 μg/ml and applied to the coated chip surface. Fab fragments were then tested at five different molar concentrations starting at 50 nM after performing a two-fold dilution series. Flow cells were regenerated with 100 mM phosphoric acid. All samples were applied in duplicate.

[7] = biological target: T1, recombinant human (rhu) EpCAM/Fc …; assay: SPR (Biacore T100), EpCAM/Fc captured on anti-human IgG Fc chip, Fab as analyte, 25 C
Description: as §1

[8] = biological target: T1, recombinant human (rhu) EpCAM/Fc …; assay: SPR (Biacore T100), EpCAM/Fc captured, Fab as analyte; Fab fragment, not IgG
Description: as §1

[9] = biological target: T2, human EpCAM expressed on human carcinoma cells (PC3, MCF7) (human, UniProt P16422 24-314); assay: flow cytometry on PC3 cells, 5 µg/ml mAb, PE-labeled anti-mouse IgG
T2 construct: whole, on cells; also called native EpCAM; surface expressed EpCAM
T2 sequence (looked up): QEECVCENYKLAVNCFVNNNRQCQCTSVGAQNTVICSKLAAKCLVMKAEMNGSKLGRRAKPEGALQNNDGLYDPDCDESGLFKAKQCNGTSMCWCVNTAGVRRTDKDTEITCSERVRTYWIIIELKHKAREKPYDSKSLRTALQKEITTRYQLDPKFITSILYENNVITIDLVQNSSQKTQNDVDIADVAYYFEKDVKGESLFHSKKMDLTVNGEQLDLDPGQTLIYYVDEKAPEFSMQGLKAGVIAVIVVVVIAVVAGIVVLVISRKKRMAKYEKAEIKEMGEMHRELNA
Description: PC3 cells (human prostate adenocarcinoma line, CRL1435™, ATCC, Manassas, Va.), grown to 80%-100% confluency in DMEM with 10% FBS, were treated with Trypsin-EDTA and resuspended in PBS containing 2% bovine serum albumin (BSA). One million cells per well were labeled with 5 μg/ml of mAb in a 200-μl volume and incubated on ice for 20 min. After washing with PBS-BSA, phycoerythrin (PE)-conjugated donkey F(ab′)2 anti-mouse IgG (Jackson ImmunoResearch, West Grove, Pa.) at 5 μg per sample was added for an additional 20-min incubation. Cells were washed again with PBS-BSA and fixed in 2% paraformaldehyde prior to analyzing (10,000 events) on a BD FACSCalibur Flow Cytometer (BD Biosciences, San Jose, Calif.). Analyses of mean fluorescence intensities (MFI) were performed using WinMDI2.9 software.

[10] = biological target: T3, murine EpCAM on mouse 4T1 mammary carcinoma cells (mouse, UniProt Q99JW5 24-315); assay: flow cytometry on mouse 4T1 cells, PE-labeled anti-mouse IgG
T3 construct: whole, on cells; also called mouse EpCAM
T3 sequence (looked up): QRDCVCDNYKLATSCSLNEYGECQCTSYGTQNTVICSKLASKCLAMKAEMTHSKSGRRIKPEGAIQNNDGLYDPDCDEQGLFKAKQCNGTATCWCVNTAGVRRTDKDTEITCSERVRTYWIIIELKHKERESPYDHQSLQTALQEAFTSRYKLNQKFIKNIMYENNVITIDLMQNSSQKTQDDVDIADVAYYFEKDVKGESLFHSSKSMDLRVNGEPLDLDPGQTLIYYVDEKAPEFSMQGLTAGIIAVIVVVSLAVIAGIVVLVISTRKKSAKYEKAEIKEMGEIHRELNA
Description: To determine whether mAbs specific for human EpCAM cross-react with murine EpCAM, the human cell line MCF7 (as described above) and 4T1 cells (mouse mammary carcinoma, CRL2539™, ATCC) were used. Hybridoma cells were grown and mAbs purified as above-described. Rat anti-mouse EpCAM, mAb G8.8 (Developmental Studies Hybridoma Bank, University of Iowa, Iowa City, Iowa) was utilized as a positive control for detection of EpCAM on the surface of 4T1 cells. Following incubation (20 min, on ice) with mAb, cells were washed with PBS-BSA and either DyLIGHT-488 conjugated donkey anti-rat IgG (Jackson ImmunoResearch) or PE-conjugated donkey F(ab′) 2 anti-mouse IgG (Jackson ImmunoResearch) was added at 5 μg per sample and incubated for an additional 20 min for detecting cells bound by rat anti-mouse or mouse anti-human EpCAM mAb, respectively. Cells were washed again with PBS-BSA and fixed in 2% paraformaldehyde prior to analyzing (10,000 events) on a BD FACSCalibur Flow Cytometer (BD Biosciences) using WinMDI2.9 software.

[11] = biological target: T1, recombinant human (rhu) EpCAM/Fc …; assay: Biacore kinetic analysis of scFv
[12] = biological target: human EpCAM expressed on human carcinoma cells (PC3, MCF7) (human) (UniProt P16422); assay: flow cytometry on PC3 cells, scFv then fluorophore-conjugated secondary antibody
[13] = biological target: recombinant human (rhu) EpCAM/Fc (960-EP, R&D Systems) (human) (UniProt P16422); assay: Biacore kinetic analysis of scFv

Molecule: in-house IgG1 isotype control mAb 69 (antibody)
Biological Activity, % (percentage of PC3 cells stained) [1]: 3.2% | MFI [1]: 125 MFI units

Molecule: Veridex anti-EpCAM mAb VU-1D9 (antibody)
MFI [2]: 106 | MFI [3]: 321 | MFI [4]: 38

Molecule: control scFv with no affinity to EpCAM (displayed on E. coli)
MFI [5]: 13 MFI

B1: Fab fragment of mAb 153 (Fab, V domains shown)
VH: QVQLQQSGAELVKPGTSVKLSCKASGYNFTSYWINWVKLRPGQGLEWIGDIYPGSGNSHYNEKFKSKATLTVDTSSSTAYMQLSSLASGDSALYYCARNYYGSSPFPMDYWGQGTSVTVSS
VL: DIVMTQSPSSLIVTAGEKVTMSCKSSQSLLNSGNQKNYLTWYQQKPGQPPKLLIYWASTRESGVPDRFTGSGSGTDFTLTLNSAQAEDLAVYYCQNDYTYPLTFGAGTKLEIK
fold increase in affinity above mAb 9601 [6]: 28 fold | Kd [7]: 530 pM | koff [7]: 0.00012 s⁻¹ | kon [7]: 220000 M⁻¹ s⁻¹ | Kd [8]: 540 pM

B2: anti-EpCAM monoclonal antibody 153 (antibody, V domains shown)
VH: QVQLQQSGAELVKPGTSVKLSCKASGYNFTSYWINWVKLRPGQGLEWIGDIYPGSGNSHYNEKFKSKATLTVDTSSSTAYMQLSSLASGDSALYYCARNYYGSSPFPMDYWGQGTSVTVSS
VL: DIVMTQSPSSLIVTAGEKVTMSCKSSQSLLNSGNQKNYLTWYQQKPGQPPKLLIYWASTRESGVPDRFTGSGSGTDFTLTLNSAQAEDLAVYYCQNDYTYPLTFGAGTKLEIK
notes: In-house mouse IgG1 from hybridoma; In the NIR flow cytometry it carried IRDye 800CW (and DOTA)
MFI fold increase relative to PE-conjugated secondary antibody alone [9]: 4.8 fold | binding result [10]: no binding

B3: anti-EpCAM scFv 153 (scFv, V domains shown)
VH: QVQLQQSGAELVKPGTSVKLSCKASGYNFTSYWINWVKLRPGQGLEWIGDIYPGSGNSHYNEKFKSKATLTVDTSSSTAYMQLSSLASGDSALYYCARNYYGSSPFPMDYWGQGTSVTVSS
VL: DIVMTQSPSSLIVTAGEKVTMSCKSSQSLLNSGNQKNYLTWYQQKPGQPPKLLIYWASTRESGVPDRFTGSGSGTDFTLTLNSAQAEDLAVYYCQNDYTYPLTFGAGTKLEIK
Kd [11]: 210 pM

B4: anti-EpCAM scFv 7 (scFv, V domains shown, not shown: small tags and cut ends)
VH: QVQLQQSGPELEKPGGSVKISCKASGYSFTGYNMNWVKQSNGKSLEWIGNIDPYNGGSGFDQKFKGKATLTVDTSSSTAYMHLKSLTSEDSAVYYCAREYGSNFDYWGQGTTLTVSS
VL: DIQMTQSTSSLSASLGDRVTISCRASQDIGTYLNWYQQQADGTFKLLIYYTSRLHSGIPSRFSGSGSGTDFSLTISNLGQEDIATYFCQQGNTLPWTFGGGTKLEIK
modifications: linker not given
MFI [12]: 380 MFI | Kd [13]: 4140 pM | MFI [5]: 170 MFI

The remaining lines, values ahead:

Biological Activity, % (percentage of PC3 cells stained) [1]: 0.7% | MFI [1]: 149 MFI units
Molecule: commercial IgG2b isotype control mAb (BD Pharmingen) (antibody)

fold increase in affinity above mAb 9601 [6]: 7 fold | Kd [7]: 2300 pM | koff [7]: 0.00099 s⁻¹ | kon [7]: 430000 M⁻¹ s⁻¹
B5: Fab fragment of mAb 7 (Fab, V domains shown)
VH: QVQLQQSGPELEKPGGSVKISCKASGYSFTGYNMNWVKQSNGKSLEWIGNIDPYNGGSGFDQKFKGKATLTVDTSSSTAYMHLKSLTSEDSAVYYCAREYGSNFDYWGQGTTLTVSS
VL: DIQMTQSTSSLSASLGDRVTISCRASQDIGTYLNWYQQQADGTFKLLIYYTSRLHSGIPSRFSGSGSGTDFSLTISNLGQEDIATYFCQQGNTLPWTFGGGTKLEIK
notes: Fab made by ficin digestion of the mouse IgG1 mAb 7; also called 7 Fab; mAb 7 Fab fragment

MFI fold increase relative to PE-conjugated secondary antibody alone [9]: 3.9 fold | binding result [10]: no binding
B6: anti-EpCAM monoclonal antibody 7 (antibody, V domains shown)
VH: QVQLQQSGPELEKPGGSVKISCKASGYSFTGYNMNWVKQSNGKSLEWIGNIDPYNGGSGFDQKFKGKATLTVDTSSSTAYMHLKSLTSEDSAVYYCAREYGSNFDYWGQGTTLTVSS
VL: DIQMTQSTSSLSASLGDRVTISCRASQDIGTYLNWYQQQADGTFKLLIYYTSRLHSGIPSRFSGSGSGTDFSLTISNLGQEDIATYFCQQGNTLPWTFGGGTKLEIK
notes: In-house mouse IgG1 from hybridoma; IRDye 800CW (and DOTA) labeled in the NIR flow cytometry; also called mAb 7

Reference: patent US20160024207A1 (University of Texas, published 2016)
